Measured values taken from patent publication US20210253679A1 (NATIONAL RESEARCH COUNCIL OF CANADA, published 2021).

Tests used:
human serum albumin [1] = molecular target: T1, human serum albumin (human, UniProt P02768 25-609); assay: SPR, single cycle kinetics, pH 5.5
T1 construct: also called HSA

rhesus serum albumin [2] = molecular target: T2, rhesus serum albumin (rhesus, UniProt Q28522 17-600); assay: SPR, single cycle kinetics, pH 5.5
T2 construct: also called RhSA

rat serum albumin [3] = molecular target: T3, rat serum albumin (rat, UniProt P02770 25-608); assay: SPR, single cycle kinetics, pH 5.5
T3 construct: also called RSA

human serum albumin [4] = molecular target: T1, human serum albumin; assay: SPR, single cycle kinetics, pH 5.5; remark: listed apart in the source
rhesus serum albumin [5] = molecular target: T2, rhesus serum albumin; assay: SPR, single cycle kinetics, pH 5.5; remark: listed apart in the source
rat serum albumin [6] = molecular target: T3, rat serum albumin; assay: SPR, single cycle kinetics, pH 5.5; remark: listed apart in the source
mouse serum albumin [7] = molecular target: T4, mouse serum albumin (mouse, UniProt P07724 25-608); assay: ITC, pH 7.4
T4 construct: also called MSA
T4 sequence (P07724 25-608 limits assumed): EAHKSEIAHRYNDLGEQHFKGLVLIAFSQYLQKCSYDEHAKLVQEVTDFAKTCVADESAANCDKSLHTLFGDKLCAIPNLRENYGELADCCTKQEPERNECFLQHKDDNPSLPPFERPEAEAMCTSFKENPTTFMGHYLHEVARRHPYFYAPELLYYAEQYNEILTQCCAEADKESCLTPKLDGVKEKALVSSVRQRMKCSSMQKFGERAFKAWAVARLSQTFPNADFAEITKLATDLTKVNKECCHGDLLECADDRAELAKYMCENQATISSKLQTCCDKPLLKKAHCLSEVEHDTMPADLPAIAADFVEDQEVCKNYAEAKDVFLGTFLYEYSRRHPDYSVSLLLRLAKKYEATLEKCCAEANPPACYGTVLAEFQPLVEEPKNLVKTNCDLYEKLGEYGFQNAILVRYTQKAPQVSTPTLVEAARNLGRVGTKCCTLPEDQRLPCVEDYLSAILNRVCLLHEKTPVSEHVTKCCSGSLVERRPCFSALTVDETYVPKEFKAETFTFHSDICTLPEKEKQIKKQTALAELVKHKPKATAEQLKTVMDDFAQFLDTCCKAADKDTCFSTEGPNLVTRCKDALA

human serum albumin [8] = molecular target: T1, human serum albumin; assay: SPR, single cycle kinetics, pH 7.4
rhesus serum albumin [9] = molecular target: T2, rhesus serum albumin; assay: SPR, single cycle kinetics, pH 7.4
rat serum albumin [10] = molecular target: T3, rat serum albumin; assay: SPR, single cycle kinetics, pH 7.4
human serum albumin [11] = molecular target: T1, human serum albumin; assay: SPR, single cycle kinetics, pH 7.4; remark: listed apart in the source
rhesus serum albumin [12] = molecular target: T2, rhesus serum albumin; assay: SPR, single cycle kinetics, pH 7.4; remark: listed apart in the source
rat serum albumin [13] = molecular target: T3, rat serum albumin; assay: SPR, single cycle kinetics, pH 7.4; remark: listed apart in the source
human serum albumin [14] = molecular target: T1, human serum albumin; assay: SPR, pH 7.4; complex binding, data not analyzable
rhesus serum albumin [15] = molecular target: T2, rhesus serum albumin; assay: SPR, pH 7.4; complex binding, data not analyzable
rat serum albumin [16] = molecular target: T3, rat serum albumin; assay: SPR, pH 7.4; complex binding, data not analyzable
mouse serum albumin [17] = molecular target: T4, mouse serum albumin; assay: SPR, single cycle kinetics, pH 7.4
HSA domain 2 (DII) = molecular target: T5, HSA domain 2 (DII) (human, UniProt P02768 213-409); assay: SPR, 100 nM VHH over an amine-coupled DII surface
T5 construct: domain: DII

| Binder | Kd (human serum albumin [1]) | Kd (rhesus serum albumin [2]) | Kd (rat serum albumin [3]) | Kd (human serum albumin [4]) | Kd (rhesus serum albumin [5]) | Kd (rat serum albumin [6]) | Kd (mouse serum albumin [7]) | Kd (human serum albumin [8]) | Kd (rhesus serum albumin [9]) | Kd (rat serum albumin [10]) | Kd (human serum albumin [11]) | Kd (rhesus serum albumin [12]) | Kd (rat serum albumin [13]) | binding result (human serum albumin [14]) | binding result (rhesus serum albumin [15]) | binding result (rat serum albumin [16]) | Kd (mouse serum albumin [17]) | binding result (HSA domain 2 (DII)) |
| --- | --- | --- | --- | --- | --- | --- | --- | --- | --- | --- | --- | --- | --- | --- | --- | --- | --- | --- |
| M79 sdAb (VHH, also called M79 VHH) VHH: QVKLEESGGGLVQAGGSLKLSCAASGSTFSSSSVGWYRQAPGQQRELVAAITSGGSTNTADSVKGRFTMSRDNAKNTVYLQMRDLKPEDTAVYYCNVAGRNWVPISRYSPGPYWGQGTQVTVSS | 7 nM | 2 nM | 7 nM | 7.1 nM | 2 nM | 7.1 nM | 406 nM | 122 nM | 85 nM | 13 nM | 122 nM | 84.6 nM | 12.6 nM | – | – | – | – | – |
| R11-H4 (VHH) VHH: QVQLVESGGGLVQPGGSLRLSCAASGFLLRSNTMGWYRQAPGKERELVAFIRPSGLTNYNDAVQGRFTISRDNSKNTLYLQMNSLRAEDTAVYYCHTRPPFQRDSWGQGTLVTVSS | – | – | – | – | – | – | – | – | – | – | – | – | – | binds | binds | binds | – | – |
| R11-H3 (VHH) VHH: EVQLVESGGGLVQPGGSLRLSCAASGFLLRSNTMGWYRQAPGKERELVSFIRPSGLTNYNDAVQGRFTISRDNSKNTLYLQMNSLRAEDTAVYYCHTRPPFQRDSWGQGTLVTVSS | – | – | – | – | – | – | – | – | – | – | – | – | – | binds | – | binds | – | – |
| R11 sdAb (VHH, also called R11 VHH) VHH: QVKLEESGGGLVQAGGSLRLSCVGPGFLLRSNTMGWYRQAPGKERELVAFIRPSGLTNYNDAVQGRFTISRDNAKNTVYLQMNALKPEDTAVYYCHTRPPFQRDSWGQGTQVTVSS | 29 nM | 116 nM | 30 nM | 28.9 nM | 116 nM | 29.9 nM | 14 nM | 93 nM | 159 nM | 61.7 nM | 93.1 nM | 159 nM | 61.7 nM | – | – | – | – | – |
| R28 sdAb (VHH, also called R28 VHH) VHH: QVQLVESGGGLVQAGGSLRLSCVASGRTFIAYAMGWFRQAPGKEREFVAAITNFAGGTTYYADSVKGRFTISRDNAKTTVYLQMNSLKPEDTALYYCAADRSAQTMRQVRPVLPYWGQGTQVTVSS | 1.8 nM | 6 nM | 0.3 nM | 1.8 nM | 5.9 nM | 0.3 nM | – | 12 nM | 38 nM | 0.4 nM | 12.1 nM | 38.2 nM | 0.4 nM | – | – | – | 160 nM | – |
| M75 sdAb (VHH, also called M75 VHH) VHH: QVQLVESGGGFVQAGGSLRLSCAASGRTFDNYVMAWFRQAPGKEREFVASISGSGSITNYANSVKDRFTISRDSAKNAIYLQMNSLKPEDTALYYCAAGSRRTYYREPKFYPSWGQGTQVTVSS | 735 nM | – | – | 735 nM | – | – | – | 1.2 nM | 2.9 nM | 315 nM | 1.2 nM | – | – | – | – | – | 510 nM | no binding (tested: 100 nM) |
